Measurements reported in publication PMC11621822.

Target: recombinant heat shock protein 70 cognate 3 (Hsc70-3), protein encoded by AAEL017349 (Aedes aegypti)
Assay: ELISA

EC50: 70.7 nM
Substance: recombinant E protein Receptor (EPrRec), protein encoded by AAEL011180 (natural protein)
